Numbered stars: 1 amine (or outer) side, 2 acyl side, 3 side chain; on linkers, the order of the positions; unused ones are H or OH. Bridge positions count the residues as written; N and C are the ends. Square brackets hold non-standard residues; d marks the D form. Tyr(OMe) = O-methyl-Tyr (4-methoxyphenylalanine), COc1ccc(C[C@H](N[*:1])C(=O)[*:2])cc1; Trp(5-F) = N[C@@H](Cc1c[nH]c2ccc(F)cc12)C(=O)O; mXylylene = c1cc(C[*:1])cc(C[*:2])c1; AlexaFluor 647 = AlexaFluor 647 dye; αMeP = C[C@@]1(C(=O)O)CCCN1; Mpa = O=C(O)CCS
What was measured:
[1] = target: T1, biotinylated PCSK9 (UniProt Q8NBP7 31-692, limits assumed, biotinylated (site not stated)); assay: Alexa FRET Standard assay
Procedure: A solution containing 1 nM biotinylated PCSK9+2.5 nM Lance Streptavidin Europium (Strep-Eu) was made in 50 mM HEPES pH 7.4, 0.15 M NaCl, 5 mM CaCl₂), 0.01% BSA, and 0.01% Surfactant P20. A separate solution containing 40 nM of the AlexaFluor tagged cyclic peptide was made in the same buffer system. An Echo was used to transfer 0.750 ul of compound to an assay plate followed by the addition of 15 ul of PCSK9+Stept-Eu and 15 ul of AF peptide. The final assay volume was 30.750 ul containing 0.5 nM PCSK9, 1.25 nM Strep-Eu, and 20 nM AF cyclic peptide. The reaction was incubated at room temperature for at least two hours prior to fluorescence measurements using an Envision Multilabel Reader. IC₅₀ values were determined by fitting data to a sigmoidal dose-response curve using nonlinear regression. Kᵢ was then calculated from the IC₅₀ and the KD of AF cyclic peptide. Counts (B-counts) of the europium-labeled PCSK9 were followed to observe if compounds were […]. A fall off of the B-counts likely indicated a false positive of inhibition. Data from this procedure was reported as “A=‘numerical value’ (nanomolar)”

[2] = target: T1, biotinylated PCSK9; assay: Alexa FRET Plus assay
Procedure: A solution containing 1 nM biotinylated PCSK9+2.5 nM Lance Streptavidin Europium (Strep-Eu) was made in 50 mM HEPES pH 7.4, 0.15 M NaCl, 5 mM CaCl₂), 0.01% BSA, and 0.01% Surfactant P20. A separate solution containing 1920 nM of the AlexaFluor tagged cyclic peptide was made in the same buffer system. An Echo was used to transfer 0.075 ul of compound plus 0.675 ul of DMSO to each well of an assay plate followed by the addition of 15 ul of PCSK9+Stept-Eu and 15 ul of AF peptide. The final assay volume was 30.750 ul containing 0.5 nM PCSK9, 1.25 nM Strep-Eu, and 960 nM AF cyclic peptide. The reaction was incubated at room temperature for at least two hours prior to fluorescence measurements using an Envision Multilabel Reader. IC₅₀ values were determined by fitting data to a sigmoidal dose-response curve using nonlinear regression. Kᵢ was then calculated from the IC₅₀ and the KD of AF cyclic peptide. Counts (B-counts) of the europium-labeled PCSK9 were followed to observe if compounds were adversely affecting PCSK9. A fall off of the B-counts likely indicated a false positive of inhibition. Data from this procedure was reported as “P=‘numerical value’ (nanomolar)”

T1 sequence (Q8NBP7 31-692 limits assumed): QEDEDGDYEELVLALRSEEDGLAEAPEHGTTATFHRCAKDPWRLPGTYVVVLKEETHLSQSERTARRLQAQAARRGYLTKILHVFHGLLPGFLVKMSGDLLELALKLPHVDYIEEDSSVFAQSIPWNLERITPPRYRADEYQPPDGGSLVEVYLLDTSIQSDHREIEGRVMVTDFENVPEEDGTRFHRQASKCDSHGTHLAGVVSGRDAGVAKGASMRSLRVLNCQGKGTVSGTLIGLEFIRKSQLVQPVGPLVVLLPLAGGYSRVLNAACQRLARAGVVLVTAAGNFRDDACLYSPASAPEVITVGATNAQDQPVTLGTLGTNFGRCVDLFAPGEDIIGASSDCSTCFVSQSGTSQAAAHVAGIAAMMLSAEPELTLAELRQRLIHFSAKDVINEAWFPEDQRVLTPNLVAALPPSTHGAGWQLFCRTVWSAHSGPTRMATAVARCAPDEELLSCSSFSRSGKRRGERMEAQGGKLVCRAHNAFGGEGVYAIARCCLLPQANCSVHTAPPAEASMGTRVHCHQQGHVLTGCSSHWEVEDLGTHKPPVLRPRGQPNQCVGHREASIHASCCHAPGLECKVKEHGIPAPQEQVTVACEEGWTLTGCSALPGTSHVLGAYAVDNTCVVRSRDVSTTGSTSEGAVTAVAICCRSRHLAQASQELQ

B1: Reagent A (peptide)
peptide: [Mpa]K(AlexaFluor 647)G[Trp(5-F)][Trp(5-F)]DHY[αMeP]C-NH2
modifications: linker N-10 via mXylylene; not fully specified
notes: also called AlexaFluor647 (AF) tagged cyclic peptide; AF cyclic peptide
Q: Which Kd [1] does the source give for B1 here?
A: 83 nM

B2: Reagent B (peptide)
peptide: [Mpa]K(AlexaFluor 647)[dA][Trp(5-F)][Trp(5-F)]DH[Tyr(OMe)][αMeP]C-NH2
modifications: linker N-10 via mXylylene; not fully specified
notes: as for B1
Q: With B2 as the binder, how does the Kd [2] read?
A: 35 nM
